In the assay the target is Rabbit polyclonal Ab. Briefly: ELISA. In general terms: In an ELISA, binding on a coated surface is turned into a signal by an enzyme label.

B1: phosphorylated HisTAG-ΔPDGFRAaa1-528 (receptor)
chain: QLSLPSILPNENEKVVQLNSSFSLRCFGESEVSWQYPMSEEESSDVEIRNEENNSGLFVTVLEVSSASAAHTGLYTCYYNHTQTEENELEGRHIYIYVPDPDVAFVPLGMTDYLVIVEDDDSAIIPCRTTDPETPVTLHNSEGVVPASYDSRQGFNGTFTVGPYICEATVKGKKFQTIPFNVYALKATSELDLEMEALKTVYKSGETIVVTCAVFNNEVVDLQWTYPGEVKGKGITMLEEIKVPSIKLVYTLTVPEATVKDSGDYECAARQATREVKEMKKVTISVHEKGFIEIKPTFSQLEAVNLHEVKHFVVEVRAYPPPRISWLKNNLTLIENLTEITTDVEKIQEIRYRSKLKLIRAKEEDSGHYTIVAQNEDAVKSYTFELLTQVPSSILDLVDDHHGSTGGQTVRCTAEGTPLPDIEWMICKDIKKCNNETSWTILANNVSNIITEIHSRDRSTVEGRVTFAKVEETIAVRCLAKNLLGAENRELKLVAPTLRSELTVA
modifications: tyrosine-phosphorylated (ectopically, by MAN2A1-FER in HUH7 cells); sites recognised by the antibodies: pY118/pY120, pY342, pY375, pY391
By Kd is commonly meant a measure of binding affinity in units of concentration. B1 returned a Kd of 18.6 nM.

The values are drawn from US20260258142A1 (published 2026).
